{"source": "paper PMC11845978", "about": "(Protein Science : A Publication of the Protein Society, 2025)", "molecular_target": "the molecule itself", "assay": "[…]"}
{"protein": "Hendra virus PNT3 (aa 200–310 of the P/V/W proteins), wild type, full-length PNT3 (domain or fragment) TPTEEPPVIPEYYYGSGRRGDLSKSPPRGNVNLDSIKIYTSDDEDENQLEYEDEFAKSSSEVVIDTTPEDNDSINQEEVVGDPSDQGLEHPFPLGKFPEKEETPDVRRKDS", "values": [{"measurement": "binding result", "value": "binds"}]}
